These results are taken from the DeepSol protein solubility set.

The series is described as follows: soluble on expression in E. coli; label from the status in PepcDB or PDB records.
Take “MGSDKIHHHHHHMTSSLQKLFTFDEFLDFLVTQPENIRYELHDGNIIQMPPPLGQHEQIVAFLTMILGYECLRLKLNYGIPKNATVKPENRTSGYYPDVLLINFSNLINEALWEKQSILSHPDSIPLVIEVVSTNWRDDYHKKLADYEEMGIQEYWIVDYAALGSKELIGDPKQPTITIYSLSDEGEYRGKQFRGDDRIESPTFSNLNLKVEQIFHCVIE”: the “soluble on expression in E. coli” value is “not soluble”. As for “MVLPERDSPCGWTRMIPLPSDGSVSIAGRSPRLNVEAVEAVVTLPTFKRPEQVLDTLASLRAQRTGRRFAVIVMENEAEVREGAKAVLPLFERGEMPGMVIVAQERGNCSAYNAGWQTAMLHFPNFRHLLVIDDDEIADPHWLERMCMAAETLGADIVGGPQVPVFADAAHARWAEHPVFAPPYRETGRVPALYSSGNLLVGRNVLVAMEPPFLDLKFNFMGGGDSDFLSRAVQNGFVLGWCAEAKVRETVPARRVEPDWIRARSLRNGVISTLVEKKKRAGTPLAGAEVLAKSLALLAAAPFRGLIRLARTGSPAIAIYPVHVALGRVLAEFGYANEQYRQPEKN”, the “soluble on expression in E. coli” value is recorded as “not soluble”. As for “MTRTNKWTEREGKADPKYFSHTGNYGESPNHIKKQGSGKGNWGKPGDEIDDLIDNGEIPPVFKKDRRGSNLQSHEQKFENVQKE”, the “soluble on expression in E. coli” value is “not soluble”.

As for “MKIESWKEGDFVNVPGKQAVSLEEFYRMRETTDRILEYIDGAVLMSPSPSTQHQRISGRLHVQLFHFLEGKPCEVFHAPFDIELKNERIEGKKIVVPDLTVICDRSGLTDSKFVGVPTLIIEILSPSNQAYDLVFKLNLYMQYGVGEYWIVNPMHSVVQIYSLNDDGQYEQAGVWKETGMACSRALDGFSVDVEQLFRP”, the “soluble on expression in E. coli” value is “not soluble”. As for “STSCVAEEPIKKIAIFGGTHGNELTGVFLVTHWLKNGAEVHRAGLEVKPFITNPRAVEKCTRYIDCDLNRVFDLENLSKEMSEDLPYEVRRAQEINHLFGPKNSDDAYDVVFDLHNTTSNMGCTLILEDSRNDFLIQMFHYIKTCMAPLPCSVYLIEHPSLKYATTRSIAKYPVGIEVGPQPHGVLRADILDQMRRMLKHALDFIQRFNEGKEFPPCAIDVYKIMEKVDYPRNESGDVAAVIHPNLQDQDWKPLHPGDPVFVSLDGKVIPLGGDCTVYPVFVNEAAYYEKKEAFAKTTKLTLNAKSIRSTLH”, the entry is “not soluble”; as for “MSLKLIKGLNLLRPCSDTPFLENAFVVIDGDEFLSVGTTEPEGEFEEVLDCGGKFALPGLINAHHHLYSALAVGMPPPAKTPLNFTQILEEVWWKLDLALDHDATQASFESGLIDSLKAGTTTVIDHHCSPSFIEGSLSLLGDTGKKLGIATGLAFEVTDRNGQELFERSLQENLDAAEKHSQDQELAALLGLHASFTLSEESLKKVAEVHSKRSNWGIHTHLSEDRADEEDARNRGHASVVERLDHFGLINQSAMLIHGVHSLESDAELIQKHKAHLVHNPTSNANNRIGMLSNQAAERMKPGLGTDGMQSNMIREAKEGMLIRSSHMSAGDAGVDYQAILFDHNPRIASAVFGRSIGRVEPGYRADLAIYDYHPRTEVHSDNVFGHVFFGLGEPCDVMSGGLMRVQNHLLQGNDEQAAKQEAAEQSRKLWQKMQEGHHHHHH”, “soluble”.

Consider “GAMDPMIIRGIRGARINNEIFNLGLKFQILNADVVATKKHVLHAINQAKTKKPIAKSFWMEILVRASGQRQIHEAIKIIGAKDGNVCLICEDEETFRKIYELIGGEIDDSVLEINEDKERLIREIFKIRGFGNVVERVLEKIALIELKKE”, for which the “soluble on expression in E. coli” value was “soluble”. On to “MNTSTSAFDFGSSTASSAATSTTSSQPDANDHLSRLAAMTQGVGKEDPETSSTPSTEASLYPGISAAYMQSYGWPQNYNYFGQPLGPATFPGWPQCYPNTAWPNYGELFASSKKGRQTYQRYQTSVLEAKFQQSSYVSKKQREELRLQTQLTDRQIKIWFQNRRMKAKKEKQRVDDHTEHTPLLPANPPKGMGMDMDDEKKWQMAHWPPAAAHNPYQYPLCPP”, for which the “soluble on expression in E. coli” value is listed as “soluble”. On to “MQNKIQVKSVEKRENALIFCAENSEIEVKELSARNHVLVDSDNLSFLYILENESSFIYVSIPHTCWEAMHEAMNNDVVMFVRVNDIEMELEGLKEEVEYLVENIEGNANYGEELVTAVEKVFL”, for which the “soluble on expression in E. coli” value is “not soluble”. Turning to “GPGSMETTTHVVNPGEEGAYSSITEAINAAVDGDTVLLKPGLYEELPKVFKDITVTAERDASLTESETIVTNGIVIGSNATLKGLQVRGRVDVRKGHAVIEECDIHHGCDGIRVGEAAKLTVRRSRIHHCESGGDGIYFSTGSMGEVEDCDIYECRVNGVHANNARVVIARNRVRDVLFGFYFRGQSSGSVERNSVEHVSKFGIYVTEGSDPVVQGNMVRECGMHCAFVSQGGKGIWVDNSFDGSMHVHSGCDAKLGSNHVVGRLDVDPPT”, the “soluble on expression in E. coli” value was “not soluble”. As for “MENKTIQLFGNITGGPIELHSQTGSRRRRDTVENAGKSAWDTAGDVGKSVIDTVENAGAAVKNGASDLDEKLMGSG”, the entry is “not soluble”; as for “ELEPGAFSELYQRYRHCDAPICLYEQGRDSFEDEGRWRLILCATCGSHGTHRDCSSLRPNSKKWECNECLPA”, “soluble”. In the case of “RPVREVGMYNMAMLMRSTGQSSFGQSVRIAENFLNEFPRSSHREQMAAILVESYFTGKDYNSSLRSIQKIAQPTASILAAKQFVLNRMAEQKEAAGYDSEALSFVSSSISMGNKGEYFPEAYFLRGNLRYRAGDFPTAAADYRAYISAAGDRDAANLPLGYYRLGYSLFNAERYDMALEAFKEYVSRSGIAPNLSADAYARIGDCRYMKRDFHGAREAYSMAYRVYPSGGDYALLRRARLEGLAKQYADQIQTLDKLIREFPDSRHLTAALYEKGCGAVLSGKHNVAEEAFNAVVKRSPDSREARQSSLQLGLLYYNTGRTKEAIRTYQRIIDRYPRSEETTVALSDLRSIYLEEDRIDEYSTYVRGLKDKVSIAPSETEQLGFLSAERKYRRRQPDARRDLEAYLERYPQGSDRHKAELYLADLDYQAGNADAAYNRYSRLVNSPGLPEDYKIDARLRLGRMQYERKEYKAALQSFQSVLDTDGAEAVRDQAVQGVTESAYADKDYRRVIDVIAGLKNQAALPHTLRLYRAKSYQALKMNREAIADYELLAEDFSTATGAEAVVMQAQLEMEAKRLSKAKSILEKFIAKSTPQQYWLARGFILLSDIYKKEGDTFTARQYLESLEKNYPNHEDDIHEQIAQRLE”, the “soluble on expression in E. coli” value was “not soluble”. Regarding “MDPLFLLLPYISSVGKEGKFQSVKQMVMDEDYPGCSRLLQCKQGLDSLHHVADEKEVNDQKYHKYNLEKTLEWLKKKVQRTVNALKKGNISVGGGVKSSTFVRVKHEDASEEDYLRYAHGLISEYISEDLSKDLLKHLELPEISSPKEAEPPSKKRKLSDKPVEAGEDYTKFNSADFARKPPKKMTAAQKSLAKADKTGMKSLASFFSPKVKQEKN”, the “soluble on expression in E. coli” value is listed as “not soluble”. As for “MAHMVNGKVALVTGAAQGIGRAFAEALLLKGAKVALVDWNLEAGVQCKAALHEQFEPQKTLFIQCDVADQQQLRDTFRKVVDHFGRLDILVNNAGVNNEKNWEKTLQINLVSVISGTYLGLDYMSKQNGGEGGIIINMSSLAGLMPVAQQPVYCASKHGIVGFTRSAALAANLMNSGVRLNAICPGFVNTAILESIEKEENMGQYIEYKDHIKDMIKYYGILDPPLIANGLITLIEDDALNGAIMKITTSKGIHFQDYGSKENLYFQ”, the “soluble on expression in E. coli” value is “soluble”.

On to “MRNFANYHVDVRRHTSGVVKTICEQCLPTRHNKRDRSLRVNIDTGHCHCYHCGADFYVPDDAEERAKAERQAARKRRAASAVPQHFHRPVFDASKTTLSEATERWLVETRCIPQSVIAGLRITEQEEFMSQSGTKERCVCFNYFEDGKLVNTKFRSGAKNFKMVQGAELIPYNIDSVLGQDTCIIHEGELDAASSLATGFKSVISVPAGANANLSWLDRFMESHFENLKDIIIAVDTDSAGLKLRDELVNRLGAERCRVAVYGPGCKDANEHLVKYGIDSLRIAIEQAEEIPLEGIFTAADLHEDLRALFDNGFGPGAETGWEEMDKICTYERRRLVIVTGIPGAGKSEWLDELVLRLCMRHQWKIAFFSPENNPIVYHLRKLIEKLTGRRFQNGCGMTEGLLLRSEEFLAENVCHIALKGSATPERVLAKARELVLRRGCRIFVFDPVNRFEHTPAPGQSETQYLSNFLNLFTEFATQYNCLVILVAHPRKMNRNPVTNHTPRPDMYDVNGSADFFNKADYGLVVERDKEVGVTRVYVEKVKFKHLGTGGVATFVYDPVSGRYLPCEESQDPSVPPEQRVRNTVNDSSCWLPEKELFE”, for which the “soluble on expression in E. coli” value is “not soluble”.
